Measured values: publication PMC8818041 (Molecular cell, 2021)
Values belong to the binder of their own block, whether it stands above or below them.

Legend:
cross-linking = biological target: the molecule itself; experiment: cross-linking
FLAG-tagged Npl4 = biological target: T1, FLAG-tagged Npl4 (S. cerevisiae, UniProt P33755 1-580); experiment: pull-down
T1 sequence: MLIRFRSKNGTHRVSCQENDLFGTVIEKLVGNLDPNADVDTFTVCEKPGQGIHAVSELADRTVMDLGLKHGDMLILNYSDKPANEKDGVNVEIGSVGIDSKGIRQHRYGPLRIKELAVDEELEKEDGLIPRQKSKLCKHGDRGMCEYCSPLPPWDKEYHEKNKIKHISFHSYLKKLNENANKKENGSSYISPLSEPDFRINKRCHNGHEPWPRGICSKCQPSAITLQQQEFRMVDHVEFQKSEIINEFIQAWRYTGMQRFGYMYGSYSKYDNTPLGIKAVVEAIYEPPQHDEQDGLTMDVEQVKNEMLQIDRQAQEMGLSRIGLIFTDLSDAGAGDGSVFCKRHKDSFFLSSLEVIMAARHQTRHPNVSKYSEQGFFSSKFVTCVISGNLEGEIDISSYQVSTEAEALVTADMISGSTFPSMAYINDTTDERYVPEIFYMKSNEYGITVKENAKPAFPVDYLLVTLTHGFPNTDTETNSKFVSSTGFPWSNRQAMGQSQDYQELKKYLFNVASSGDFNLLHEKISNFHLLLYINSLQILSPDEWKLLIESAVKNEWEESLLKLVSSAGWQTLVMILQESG

B1: Cdc48^2Cys (Cdc48 containing S286C and R333C) (enzyme, S. cerevisiae)
chain: MGEEHKPLLDASGVDPREEDKTATAILRRKKKDNMLLVDDAINDDNSVIAINSNTMDKLELFRGDTVLVKGKKRKDTVLIVLIDDELEDGACRINRVVRNNLRIRLGDLVTIHPCPDIKYATRISVLPIADTIEGITGNLFDVFLKPYFVEAYRPVRKGDHFVVRGGMRQVEFKVVDVEPEEYAVVAQDTIIHWEGEPINREDEENNMNEVGYDDIGGCRKQMAQIREMVELPLRHPQLFKAIGIKPPRGVLMYGPPGTGKTLMARAVANETGAFFFLINGPEVMCKMAGESESNLRKAFEEAEKNAPAIIFIDEIDSIAPKRDKTNGEVERCVVSQLLTLMDGMKARSNVVVIAATNRPNSIDPALRRFGRFDREVDIGIPDATGRLEVLRIHTKNMKLADDVDLEALAAETHGYVGADIASLCSEAAMQQIREKMDLIDLDEDEIDAEVLDSLGVTMDNFRFALGNSNPSALRETVVESVNVTWDDVGGLDEIKEELKETVEYPVLHPDQYTKFGLSPSKGVLFYGPPGTGKTLLAKAVATEVSANFISVKGPELLSMWYGESESNIRDIFDKARAAAPTVVFLDELDSIAKARGGSLGDAGGASDRVVNQLLTEMDGMNAKKNVFVIGATNRPDQIDPAILRPGRLDQLIYVPLPDENARLSILNAQLRKTPLEPGLELTAIAKATQGFSGADLLYIVQRAAKYAIKDSIEAHRQHEAEKEVKVEGEDVEMTDEGAKAEQEPEVDPVPYITKEHFAEAMKTAKRSVSDAELRRYEAYSQQMKASRGQFSNFNFNDAPLGTTATDNANSNNSAPSGAGAAFGSNAEEDDDLYS
modifications: disulfide bridges between neighbouring protomers after oxidation
stoichiometry N (cross-linking): 6

binding result (FLAG-tagged Npl4): binds
B2: Ufd1 (natural protein, S. cerevisiae, UniProt P53044 1-361, looked up)
chain: MFSGFSSFGGGNGFVNMPQTFEEFFRCYPIAMMNDRIRKDDANFGGKIFLPPSALSKLSMLNIRYPMLFKLTANETGRVTHGGVLEFIAEEGRVYLPQWMMETLGIQPGSLLQISSTDVPLGQFVKLEPQSVDFLDISDPKAVLENVLRNFSTLTVDDVIEISYNGKTFKIKILEVKPESSSKSICVIETDLVTDFAPPVGYVEPDYKALKAQQDKEKKNSFGKGQVLDPSVLGQGSMSTRIDYAGIANSSRNKLSKFVGQGQNISGKAPKAEPKQDIKDMKITFDGEPAKLDLPEGQLFFGFPMVLPKEDEESAAGSKSSEQNFQGQGISLRKSNKRKTKSDHDSSKSKAPKSPEVIEID
